Data reported in PMC10023946 (The Journal of Biological Chemistry, 2023).
Substitutions are numbered along the chain they refer to. Names and notes keep the numbering of the source.

Assays:
[1] = biological target: T1, cytochrome P450 17A1 (CYP17A1) (Homo sapiens, UniProt P05093); format: biochemical
T1 sequence (P05093 20-508): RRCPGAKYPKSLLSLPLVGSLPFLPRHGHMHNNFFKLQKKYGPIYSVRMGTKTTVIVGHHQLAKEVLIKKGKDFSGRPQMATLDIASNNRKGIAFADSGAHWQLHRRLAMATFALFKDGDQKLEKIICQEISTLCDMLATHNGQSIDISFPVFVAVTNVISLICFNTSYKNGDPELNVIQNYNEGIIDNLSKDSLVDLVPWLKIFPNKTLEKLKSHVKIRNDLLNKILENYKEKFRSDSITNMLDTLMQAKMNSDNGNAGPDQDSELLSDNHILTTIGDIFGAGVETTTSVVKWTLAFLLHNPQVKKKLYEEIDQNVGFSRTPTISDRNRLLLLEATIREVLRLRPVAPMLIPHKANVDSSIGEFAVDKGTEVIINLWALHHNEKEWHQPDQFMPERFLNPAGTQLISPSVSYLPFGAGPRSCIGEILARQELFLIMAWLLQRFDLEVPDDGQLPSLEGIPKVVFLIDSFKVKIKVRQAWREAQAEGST

CYP17A1 N52Y = biological target: T2, CYP17A1 N52Y (Homo sapiens, UniProt P05093, N52Y); test: X-ray co-crystal structure, […] Å; format: biochemical
T2 sequence (P05093 20-508 N52Y): T1 sequence (P05093 20-508) with N33Y

purified protein [2] = substrate: CC(=O)[C@@]1(O)CC[C@H]2[C@@H]3CC=C4C[C@@H](O)CC[C@]4(C)[C@H]3CC[C@@]21C; test: purified protein; settings: heme displacement of heme-coordinated water
purified protein [3] = substrate: CC(=O)[C@H]1CC[C@H]2[C@@H]3CCC4=CC(=O)CC[C@]4(C)[C@H]3CC[C@]12C; test: purified protein

In the case of `C[C@]12CC[C@H](O)CC1=CC[C@@H]1[C@@H]2CC[C@]2(C)C(c3cccnc3)=CC[C@@H]12` [abiraterone], the IC50 [1] is reported as 69 ± 5 nM and the IC50 (CYP17A1 N52Y) is reported as 51 ± 2 nM.

B1: CYP17A1 N52Y (Homo sapiens; N52Y) (protein)
chain: T1 sequence (P05093 20-508) with N33Y
With B1 the Km (purified protein [2]) was 0.6 ± 0.1 µM and the Km (purified protein [3]; heme displacement of heme-coordinated water) was 1.60 ± 0.09 µM.

B2: cytochrome P450 17A1 (CYP17A1) (Homo sapiens) (protein)
chain: T1 sequence (P05093 20-508)
In the case of B2, the Km (purified protein [3]; heme) is reported as 5.2 ± 0.5 µM.
